From US20240352084A1 come the findings set out here.

Holding throughout (details): ligand
Assay [1] has as its target human IL-2Rα ectodomain (residues 1-217) with C-terminal biotin acceptor peptide and histidine tag, biotinylated (human) (UniProt P01589). Description: MST; pH 5.
For assay [2] the target is unchanged. Description: MST; pH 7.
Assay [3] shares this target. Description: MST; pH 6.

UniProt P01589, sequence (P01589 other isoform, or with tags, fused parts or gaps): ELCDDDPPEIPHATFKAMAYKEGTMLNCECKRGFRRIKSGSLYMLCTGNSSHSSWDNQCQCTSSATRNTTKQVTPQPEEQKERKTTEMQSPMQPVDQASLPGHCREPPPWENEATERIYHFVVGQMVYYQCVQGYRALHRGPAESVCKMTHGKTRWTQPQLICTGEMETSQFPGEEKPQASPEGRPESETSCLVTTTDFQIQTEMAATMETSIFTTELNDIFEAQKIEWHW

As for “Human IL-2 wild-type (WT; residues 1-133), recombinant, C-terminal histidine tag (from UniProt P60568 21-150)”, the Kd was found to be 184 nM in assay [1], 7 nM in assay [2] and 90 nM in assay [3].

What is called Kd is the equilibrium constant for the complex coming apart. A higher Kd goes with a looser complex.
